Measured values: patent US20030165841, “Use of phosphorothiolate polynucleotides in ligating nucleic acids” (published 2003)

T1: Topo65 (human topoisomerase I fragment, residues 215-765) (Homo sapiens, UniProt P11387 SEQ:22-572)
T1 chain: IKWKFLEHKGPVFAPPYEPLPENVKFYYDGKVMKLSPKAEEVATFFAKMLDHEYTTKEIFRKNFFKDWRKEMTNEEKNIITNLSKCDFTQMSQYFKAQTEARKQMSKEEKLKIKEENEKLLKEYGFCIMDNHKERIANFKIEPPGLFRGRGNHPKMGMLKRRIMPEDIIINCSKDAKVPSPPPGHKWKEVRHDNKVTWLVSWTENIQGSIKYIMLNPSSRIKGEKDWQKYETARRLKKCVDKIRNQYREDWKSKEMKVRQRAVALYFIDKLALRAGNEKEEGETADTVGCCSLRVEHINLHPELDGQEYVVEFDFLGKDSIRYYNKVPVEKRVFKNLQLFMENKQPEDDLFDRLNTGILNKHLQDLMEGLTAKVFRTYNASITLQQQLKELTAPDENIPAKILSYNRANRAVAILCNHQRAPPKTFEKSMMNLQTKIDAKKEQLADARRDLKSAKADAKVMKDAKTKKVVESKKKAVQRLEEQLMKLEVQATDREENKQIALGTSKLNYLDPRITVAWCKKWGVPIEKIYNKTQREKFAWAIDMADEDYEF

B1: suicide 22-mer duplex (dsDNA)
DNA 1: AAAAAGACTTAGAAAAATTTTT
DNA 2: AAAAATTTTTCTAAGTCTTTTT
modifications: 5'-bridging phosphorothiolate between GACTT and AGAAAA of top strand

Tests used:
[1] = biological target: T1, Topo65 (human topoisomerase I fragment, …); test: no gel shift with single strand alone
Protocol: (§1) The duplex substrates shown in FIGS. 3A and 3B were reacted overnight at room temperature with Topo65. The reaction mixtures contained 3 μM Topo65, 10 μM duplex substrate, 10 mM Tris-HCl, pH 7.5, 100 mM KCl, 10 mM MgCl2, 1 mM EDTA, and 2 mM DTT. The reaction products were adjusted to 1 M NaCl or NOT and then analyzed by 10% SDS-PAGE and Coomassie Blue staining (lanes 4-7). FIG. 4 is a photograph of the stained gel.
This experiment was repeated after removal of the DMT from the AS oligonucleotides by acid treatment, and an identical gel-shift was observed on reaction of “DMT off” oligonucleotide complexes with Topo65. However, no gel shift was observed if duplex generated from ratios of single strand oligonucleotides alone, for example, TCRIBamS, TCRIBamAS, TCRIBstBS or TCRIBstBAS alone.

[2] = biological target: T1, Topo65 (human topoisomerase I fragment, …); test: covalent complex by SDS-PAGE shift; enzyme reacts quantitatively
Protocol: as §1
As a control, Topo65 was allowed to react with a duplex 22-mer suicide substrate. The suicide substrate contains a centrally positioned 5′-bridging phosphorothiolate.

Row | Binder | binding result [1] | binding result [2]
1 | AATTCGCGGCCGCAAAAAGACTTGATC (ssDNA, 5'-bridging phosphorothiolate 4 bases from 3' end) [TCRIBamS alone] | no binding | 
2 | GATCAAGTCTTTTTGCGGCCGCG (ssDNA) [TCRIBamAS alone] | no binding | 
3 | CGAAGTCTTTTTGCGGCCGCG (ssDNA) [TCRIBstBAS alone] | no binding | 
4 | B1 |  | binds
5 | AATTCGCGGCCGCAAAAAGACTTCG (ssDNA, 5'-bridging phosphorothiolate 2 bases from 3' end) [TCRIBstBS alone] | no binding | 
